The nature of this series: yeast display, Sf9 membrane polyspecificity reagent, FACS + sequencing; frameworks hold sequencing errors. The method in brief:
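In a synthetic yeast display library (Saccharomyces cerevisiae BJ5465), nanobody expression was induced with galactose for 36–48 hours. FACS gates were set low and high (top ~1%) using anti-HA fluorescence for expression and streptavidin fluorescence for binding of the Sf9 membrane reagent. Each polyreactivity label is drawn from the gate of origin.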
Regarding “QDQLVESGGGIVQAGGSLRLSCAASGFTFFANTMGWSRQAPGKERELVAVISSTVGYTYYADSVKGRFTISRDNAKNTVYLQMNSLKPEDTAVYYCAAKSIYDGFPYYLFDYWGQGSQVTVSS”, the “polyreactivity (PSR sort gate)” value is listed as “high polyreactivity”.

For “QVQLVESGGGLVQAGGSLRLSCAASGRIFGTYAMGWYRQAPGKERELVATISYSSGRTYYADSVKGRFTISRDNAKNTVYFQMNSLKPEDTAVYYCARRRRSGSRQYYYWGQGTQVTVSS”, the “polyreactivity (PSR sort gate)” value was “high polyreactivity”.

In the case of “QVQLVESGGGLVQAGGSLRLSCADSGFIIGRYTMGWYRQAPGKERELVAAISFRGGSTYYADSVKGRFTISRDNAKNTVYLQMNCLKPEDTAVYYCAAYSSGPYGFDYWGQGTQVTVSS”, the “polyreactivity (PSR sort gate)” value is “high polyreactivity”.

Consider “QVQLVESGGGLVQAGGSLRLSSAASGRTIDGNAMVWYRQAPGKEREWVATITRGGSTYYADSVKGRFTISRDNAKNTVYLQMNSLKPEDTSVYYCAARYYGRSQHHFDYWGQGTQVTVSS”, for which the “polyreactivity (PSR sort gate)” value is “high polyreactivity”.

Consider “QVQLVESGGGRVQAGGRIRLRCAASGLIFPGYDMGWYSPAPGKERELVAAISDSGANTYYADSVKGRFTISRDNAKNTVYLQMTSLKQEDTAVYYCAADSSWWYGTSFGRFDYWGQGTQVTVSS”, for which the “polyreactivity (PSR sort gate)” value was “low polyreactivity”.

On to “QVQLVESGGGLVQAGGSLRLSCAASGSIFSAYAMGWYRQAPGKERELVAAITKSSVTYYADSVKGRFTISRDNAKNTVYLQMNSLKPEDTAVYYCAAYSPRPSDLYSPIAYYYWGQGTQVTVSS”, for which the “polyreactivity (PSR sort gate)” value was “low polyreactivity”.

For the sequence “QVQLVESGGGLVQAGGSLRLSCAASGITFNSYAMGWYRQAPGKERELVAAISGSGSSTYYADSVKGRFTISRDNAKNTVYLQMNSLKPEDTAVYYCAATGYSSWTYYTHEYWGQGTQVTVSS”, the “polyreactivity (PSR sort gate)” value is “low polyreactivity”.

As to “QVQLVESGGGLVQAGGSLRLSCAATGFTFEYYAMGWYRKAPGKERELVAAITSGGSTNYADSVKVRFTISRDNAKNTVSLQKNSLKPEDTAVYYCATSGNNYYYALYGYWGQGTQVTVSS”, the “polyreactivity (PSR sort gate)” value is on record as “low polyreactivity”.

On to “QVQLVESGGGLVQAGGSLRLTCAATGSTLYFYAMGWYRQAPGKERELVASISGTGGRTDYADSVKGRFTISRDNAKNTVYLQMNSLKPEDTAVYYCAADLIRRYGDGYWGQGTQVTVSS”, for which the “polyreactivity (PSR sort gate)” value is reported as “high polyreactivity”.

Turning to “QVQLVESGGGLVQAGGSLRLSSAASGSTFLYYAMGWYRQAPGKERELVATITDGGSTNYADSVKGRFTISRDNAKNTVYLQMNSLKPEDTAVYYCATDSYHYSYGYSSLPEYDYWGQGTQVTVSS”, the “polyreactivity (PSR sort gate)” value was “low polyreactivity”.

With “QVQLVESGGGLVQAGGSLRLSCADSGSIYHNYDMGWYRQAPGKEKEFVADISRGGDTIYADSVKGRFSISRDNAKNTVYLQMNSLKPEDTAVYYCNATYWILDSPWWRETFDYWGQGTQVTVSS”, the “polyreactivity (PSR sort gate)” value was “low polyreactivity”.

As for “QVQLVESGGGIVQAGGRLRLSCAASGFTFGKYAMGWYRQAPGKERELVAAISRSGGSTYYADSVKGRFTISRDNAKFTVYLPMNSLKPVDTAVYYCAAYHPIQEYDYWGQGTQVTGSS”, the “polyreactivity (PSR sort gate)” value was “high polyreactivity”.

Take “QVQLVESGGGLVQAGGSLRLSCAASGSTFGNYAMAWYRQAPGKERELVATISRSGGSTYYADSVKGRFTISRDNAKNTVYLLMNSLKPEDTAVYYCNRRYYTRKPDYNSWGQGTQVTVSS”: the “polyreactivity (PSR sort gate)” value was “high polyreactivity”.

“QVQLVESGGGLVQAGGSLRLSCSASGFTFDSYAMGWYRQAPGKERELVAAITSDGSTYYADSVKGRFTISRDNAKNTVYLQMNSLKPEDTAVYYCAADGRYFRAVFRLYDYWGQGTQVTVSS”: the “polyreactivity (PSR sort gate)” value is on record as “low polyreactivity”.

Turning to “QVQLVESAGGLVQAGVRLRLSCAASGRTFVCNAMGSYRQAPGKERELVADITWSGDITYYADSVKGRFTISRDNAKNTVYLQMNSLKPEDTAVYYCAADYHRRLTDYDYWGQGTQVTVSS”, the “polyreactivity (PSR sort gate)” value is given as “low polyreactivity”.

As to “QVHLVESGGGLVQAGGSLRLSCAASGRIFRTYAMGWYRQAPGTERELVASITTSSDSPYYADSVKGRFTISRDNAKNTVYLQMNSLKPEDTAVYYCAADGDHPWWSQYDYWGQGTQVTVSS”, the “polyreactivity (PSR sort gate)” value is “low polyreactivity”.

As to “QVQLVESGGGLVQAGGSLRLSCAASGRTFWYYAMGWYRQAPGKERELVATISYRGGSTYYADSVKGRFTISRDNAKNTVYLQMNSLKPEDTAVYYCAAKQWWGGRPKVDYWGQGTQVTVSS”, the “polyreactivity (PSR sort gate)” value is recorded as “high polyreactivity”.

Regarding “QVQLVESGGGLVQAGGSLRLSCAASGRTIRLYGMGSYRQAPGKERELVAAITWSGGRTYYADSVKGRFTISRDNEKNTFYLQMNSLKPEDSAVYYCAAGNSSYGKPKYYYWGQGTQVTVSS”, the “polyreactivity (PSR sort gate)” value is “high polyreactivity”.

For “QVQLVESGGGLVQAGGSLRLSCAASGFTFHTYAMGWYRQAPGKERELVAAIDSSGGITYYADSVKGRFTISRDNAKNTVYLQMKSLKPEDTAVYYCAAVFLLFGFEWSYDYWGQGTQVTVSS”, the “polyreactivity (PSR sort gate)” value was “low polyreactivity”.

“QVQLVESGGGLVQAGGSLRLSCDASGSIFGRNAMGWYRQAPGKERELVAAISWRGGRTYYADSVKGRFTISRDNAKNTVYLQMNSLKPEDTAVYYCAATSGRPYEYGYWGQGTQVTVSS”: the “polyreactivity (PSR sort gate)” value is recorded as “high polyreactivity”.

As for “QVQIVESGGGLVQAGGSLRLSCADSGSTRIYAMGWYRQAPGKERELVAAISWSGGRTYYADSVKGRFTISRDNAKNTVYLQMNSLKPEDTAVYYCAAKGSGRDYWGQGTQVTVSS”, the “polyreactivity (PSR sort gate)” value is “high polyreactivity”.

“QVQLVESGGGLVQAGGSLRLSCAASGRTFVTYAMGWYRQAPGKERELVAGIRRGGSTYYADSVKGRFTISRDNAKNTVYLQMNSLKPDDPAVYDCAKTFYAHRAYTSYTARPYDYWGQGTQVTVSS”: the “polyreactivity (PSR sort gate)” value is “high polyreactivity”.

On to “QVQLVESGGGLVQAGGSLRLSCAASGLISYHYAMGWYRQAPGKERELVASISYTGGSTFYADSVKGRFTISRDNAKNTVYLQMNSLKPEDTAVYYCAAYRIWRPSYYYWGQGTQVTVSS”, for which the “polyreactivity (PSR sort gate)” value is given as “high polyreactivity”.

Take “QVQLVESGGGLVQAGGSLRLSCAASGFTFDEKAMGWYRQAPGINYSGASTYYADSVKGRFTISRDNAKNTVYLQMNSLKPEDTAVYYCAAEVVAQMNYWGQGTQVTVSS”: the “polyreactivity (PSR sort gate)” value is given as “low polyreactivity”.

Regarding “QVQLVESGGGLVQAGGSLRLSCAASRSIFGTYAMGWYRQAPGKERELVAAISYSGGSTYYADSVKGRFTISRDNGKYTVYLQMNSLKPEDTAVYYCNKSRFYWGYYWGQGTQVTVSS”, the “polyreactivity (PSR sort gate)” value was “low polyreactivity”.

With “QVQLVESGGGLVQAGGSLRLSCAASGFTFRRYAMGWYRQAPGKERELVAAISTSGGRTYYADSVKGRFTISRDYAKITVYLQMNSLKPEDSAVYDCNAAGGYRTSPSDYWGQGTQVTVSS”, the “polyreactivity (PSR sort gate)” value is listed as “high polyreactivity”.

For “QVQLVESGGGLVQAGGSLRLSCAASGSTFHYYAMGWYRQAPGKERELVAAINSGARTYYADSVKGRFTISRDNAKNTVYLQMNSLKTEDTAVYYCNKAFQWSGGQVSYDYWGQGTQVTVSS”, the “polyreactivity (PSR sort gate)” value is listed as “low polyreactivity”.

As to “QVQLVESGGGLVQAGGSLRLSCAASGITFFLYGMGWYRQAPGKERELVAAISWSCASTYADSVKGRFTISRDNAKNTVYLQMNSLKPEDTAVYYCARDDNPIYSGVTYDYWGQGTQVTVSS”, the “polyreactivity (PSR sort gate)” value is “low polyreactivity”.

Turning to “QVQLVESGGGLVQAGGSLRLSCAASGFIFWRNAMGWDRQAPGKDRELVATISRSGGSTYYADSVKGRFTISRDTAKNTVYLQMNSLKPEDTAVYYCATVPWYYWGTHRTLYDYWGQGTQVTVSS”, the “polyreactivity (PSR sort gate)” value was “high polyreactivity”.

“QVQLVESGGGLVQAGGSLRLSCAASGSTFGYAMGWYRQAPGKEREMVAAITSTGGSTYYADSVKGRFTISRDNAKNTVYVQMHSLKPEDTAVYYCAAQVGRGYEVYPVYKYGYWGQGTQVTVSS”: the “polyreactivity (PSR sort gate)” value was “high polyreactivity”.

Take “QVQLVESGGGLVQAGGSLRLSCAASGRTFRFYAMGWNRQAPGKERELVAAINWTGGSTYYADSVKGRFTISRDNAKNTVYLQMNSLKPEDTAVYYCAKVQDYRFEYWGQGTQVTVSS”: the “polyreactivity (PSR sort gate)” value is recorded as “high polyreactivity”.

“QVQLVESGGGLVQAGGSLRLSCAASGFTFRIYAMGWYRQAPGKERELVAAITSGGRTYYADSVKGRFTISRDNAKNTVYLQMNSLKPEDTAVYYCAALYFTRDRYDYWGQGTQVTVSS”: the “polyreactivity (PSR sort gate)” value is reported as “high polyreactivity”.

With “QVQLVESGGGLVQAGGSLRLICAASGFIFFINDMGWYRQAPGKEREWVAAISWSGGSTYYADSVKGRFTISRDNEKNNFYIQMNSLKAEETAGYYFKTDVPTAQYDYWGQGTQVTVSS”, the “polyreactivity (PSR sort gate)” value is “low polyreactivity”.

For the sequence “QVQLVESGGGLVQAGGSLRLSCAASGSTFEQNAMGWYRPAPGKEREFVAAITGSGGSTYYADSVKGRFTISRDNAKNTVYLQMNSMKPEDTAVYYCAADIQDGWYWWDIYDYWGQGTQVTVSS”, the “polyreactivity (PSR sort gate)” value is “low polyreactivity”.

In the case of “QVQLVESGGGLVQAGGSLRLICAASGGIIYYYAMGWYRQAPGKERELVAGITSAGSTYYADSVKGRFTISRDNAKNTVYLQMNSLKPEDTAVYYCKDAWPGYYWYYDDDYWGQGTQVTVSS”, the “polyreactivity (PSR sort gate)” value was “low polyreactivity”.

As to “QVQLVESGVGKVQAGGSLRLSCAASGSTIGSNAMGWYRQAPGKESELVATINWRGGSTYADSVKGRFTLSRDNAKNTVYLQINSLKPEDTAVYYCKKVRGAFYSHLFDYWGQGTEVTVSS”, the “polyreactivity (PSR sort gate)” value is listed as “high polyreactivity”.

As for “QVQLVESGGGLVQAGGSLRLSCAASGSTFWPYAMGWYRQAPGKERELVAAITRSGGSTYYADSVKGRFTISRDNAKNTVYLQMNSLKPEDTAVYYCAKYTSSRFEYDYWGQGTQVTVSS”, the “polyreactivity (PSR sort gate)” value is “low polyreactivity”.

On to “QVQLVESGGGLVQAGGSLRLSCAASGLIFARNAMGWYRQAPGKETELVAAISKRGGSTYYADSVKGRFTISRDNAKNTVYLQMNSLKPDDTAVYYCNARYFRWWDMGYWGQGTQVNVSS”, for which the “polyreactivity (PSR sort gate)” value is recorded as “high polyreactivity”.

In the case of “QVQLVESGGGLVQAGGSLRLSCAASGFIFLAYTMGWYRPAPGKERELVAAISTSGGSTYYADSVKGRFTISRDNAKNTVYLQMNILKPEDTAVYYCAARYRWGRYDYWGQGTQVTVSS”, the “polyreactivity (PSR sort gate)” value is “high polyreactivity”.

With “QVQLVESGGGLVQAGGSLRLSGAASGRTFKHYVMGWYRQAPGKARELVAAYRSGGRTNYADSVKGRFTISRDNAKNTVYLQMNRVKPADTAVYYCAARYFSQYQGAGYDSWGQGTQVTVSS”, the “polyreactivity (PSR sort gate)” value is “high polyreactivity”.

For the sequence “QVQLVESGGGLVQAGGSLRLSCAASGLTFQSYAMGWYRQAPGKEMELVATIYNGSSTYYAVSVKGRFTISRDNAKNTDYLQMNSLKPEDTAVYYCAKDYYYSRNALYGHDYWGQVTQVTVSS”, the “polyreactivity (PSR sort gate)” value is listed as “low polyreactivity”.

Values taken from the nanobody polyreactivity screen of Harvey et al. (2022).
